This is an account of results in patent US11591604B2, “Gene expression in Bacteroides” (Massachusetts Institute of Technology, priority 2015, dated 2023).

Read-outs that look alike come from different tables or passages of the source.

In data set [1] the test system is B. thetaiotaomicron. As to the kind of experiment: Minimum inhibitory concentration of polymyxin B with CRISPRi against BT1854. Format: cell-based. The text has this:
FIGS. 4A-4F. CRISPRi-mediated repression of recombinant and endogenous genes. (FIG. 4A) Schematic of dCas9-based repression of NanoLuc. LacI^Q is expressed from PBT1311 and represses transcription from the PLacO23 promoter. Addition of IPTG inactivates LacI^Q to allow expression of dCas9 from PLacO23 dCas9 complexes with guide RNA (sgRNA) constitutively expressed from the P1 promoter to prevent the transcription of NanoLuc from the PcfiA promoter. Guide RNAs were designed to target the coding sequence of NanoLuc (NL1-4) or the PcfiA promoter (PR1-2). (FIG. 4B) Response curves of dCas9-mediated targeting the coding sequence of NanoLuc (NL1-4), the promoter (PR1-2) or a nonsense sequence (NS). Fourfold serial dilutions of IPTG starting at 500 μM or no inducer were added to cultures. Response curves were fit to a Hill Function (solid lines). (FIG. 4C) Fold repression elicited by various gRNAs in the presence (500 μM) of inducer. Bars are colored to correspond to part B. (FIG. 4D) Genomic location of endogenous genes targeted using CRISPRi. […]
Resistance to inflammation-associated cationic antimicrobial peptides, such as polymyxin B, is essential for the stability of commensal organisms in the dynamic gut environment. […] Using the minimum inhibitory concentration (MIC) of polymyxin B as a phenotypic readout, an sgRNA was designed to specifically suppress BT1854 expression.

The test system of data set [2] is NanoLuc. Nature of the data set: Response curves of inducible promoters driving NanoLuc. Format: cell-based, B. thetaiotaomicron. As to conditions: for change in gene expression on induction: IPTG induction. Here is the method: FIGS. 2A-2E. Design and characterization of genetic sensors. (FIGS. 2A-2D) Response curves for NanoLuc under the regulated control of the rhamnose—(Rha) (FIG. 2A), chondroitin sulfate—(ChS) (FIG. 2B), arabinogalactan—(AG) (FIG. 2C), or IPTG—(FIG. 2D) inducible promoters. LacO1 operator sites were inserted in various regions (O1, O2, O3) of the PcfxA promoter (see also FIGS. 7A-7B). Inducer concentrations were applied as follows: three-fold serial dilutions starting at 10 mM Rha (FIG. 2A); three-fold serial dilutions starting at 0.4% for ChS (FIG. 2B) and AG (FIG. 2C); and four-fold serial dilutions starting at 500 μM for IPTG (FIG. 2D). The leftmost data point in each plot represents the background luminescence in the absence of inducer. Response curves were fit to a Hill function (solid lines). (FIG. 2E) Orthogonality matrix of sugar-inducible genetic systems incubated with 10 mM rhamnose (Rha), 0.2% chondroitin sulfate (ChS), 0.2% arabinogalactan (AG), or 100 mM IPTG compared to no inducer. Error bars represent the standard deviation of three biological replicates made on different days.
FIGS. 7A-7B. Synthetic IPTG-inducible promoters. (FIG. 7A) Synthetic IPTG-inducible promoters were constructed by placing LacO1 operator sites (red) upstream of the −33 element (O1), between the −33 and −7 elements (O2) and/or directly downstream of the transcription start site (O3) of the strong PcfxA promoter. Predicted −33, −7 and +1 sites are shown in bold. These promoters are regulated by the E. coli LacIQ repressor expressed from PBT1311. FIG. 7A depicts SEQ ID NOs: 217 to 220 from top to bottom, respectively. (FIG. 7B) Response curves for the synthetic IPTG-inducible systems. Cells were incubated with no inducer or four-fold serial dilutions of IPTG starting at 500 μM. Data sets for PLacO13 and PLacO23 were fit to a Hill function (solid line). Error bars represent the standard deviation of three biological replicates made on three different days (n=3).
To create inducible systems for use in B. thetaiotaomicron, parts from a large repertoire of systems that govern carbohydrate utilization were used, which included cytoplasmic transcription factors, extracytoplasmic function sigma/anti-sigma pairs, and hybrid two-component systems (HTCS), among others (64). In B. thetaiotaomicron, rhamnose metabolism is mediated by the AraC/XylS-family transcriptional activator, RhaR, which activates transcription at the PBT3763 promoter (Patel E H, et al. Res. Microbiol. 159:678-84, 2008). To assay the functionality of PBT3763 as an inducible system, 250 bp of the promoter-RBS region was cloned upstream of the start codon of BT3763 into the pNBU2 expression vector to drive expression of NanoLuc.
Two-component systems are signal-transduction mechanisms widespread in bacteria for sensing external stimuli. […] Putative HTCSs, BT3334 and BT0267, were identified in transcriptomic studies to control expression of the chondroitin sulfate (ChS)-inducible PBT3324 promoter and arabinogalactan (AG)-inducible PBT0268 promoter, respectively (64, 83). The promoter regions upstream of the BT3324 and BT0268 genes were used as the basis for two polysaccharide sensors. Chondroitin sulfate induction of PBT3324 and arabinogalactan induction PBT0268 led to a 60-fold and 29-fold regulation of output gene expression, respectively (FIGS. 2B and 2C).
Next, an IPTG-inducible system was developed. Pairs of LacO1 operator sites were inserted in the strong PcfxA promoter in three locations: upstream of the −33 element (O1), between the −33 and −7 elements (O2) or just downstream of the transcription start site (O3) (FIGS. 7A-7B). The LacI^Q repressor was expressed from the strong BT1311 promoter to achieve tight control of NanoLuc expression. Compared to the unmodified PcfxA promoter, the addition of synthetic operator sites diminished the maximum expression of NanoLuc (FIGS. 7A-7B). […]

Data set [3] deals with NanoLuc. As to the kind of experiment: Luciferase activity in fecal pellets of mice colonized with arabinogalactan-inducible P0268 strain. The format is in vivo, Swiss Webster mice. Here is the method:
FIGS. 5A-5D. In vivo function of genetic parts within B. thetaiotaomicron colonizing the mouse gut. (FIG. 5A) Experimental timeline. Specific pathogen free (SPF) Swiss Webster mice were treated for 10 days with ciprofloxacin and metronidazole and gavaged with B. thetaiotaomicron 2 days after cessation of treatment. […] Mice were provided drinking water supplemented with 5% arabinogalactan (FIG. 5B: solid line), or 25 mM IPTG (FIG. 5C: solid line) after stool collection on Day 2 (grey box), or were maintained on normal drinking water throughout the entire experiment (dashed lines). Inducer water was removed on Day 4 after stool collection. Grey boxes indicate the period of time that mice were exposed to inducer-supplemented drinking water. Luminescence values were normalized to cell density as determined by qPCR using NanoLuc-specific primers. (FIG. 5D) SPF mice were colonized with B. thetaiotaomicron containing the rhamnose-inducible integrase construct P3763-rpiL*C51-Int12. […] Absolute quantities of flipped and unflipped memory array in fecal DNA were determined by qPCR using standard curves (Experimental Procedures). Recombination frequency is expressed as the ratio of cells containing a flipped memory array (Flipped) divided by the sum total of cells containing a flipped or unflipped array (Total). […]

Setting [4] is: IPTG inducer, LacIQ expressed from BT1311 promoter, read-out: threshold K.

Consider polymyxin B, for which the “decrease in MIC compared to WT and dCas9NS control” value in data set [1] (dCas9BT1854 cells, dCas9 induced with IPTG) is reported as 8 to 16 fold. Besides, the “polymyxin B resistance” value in data set [1] (dCas9NS strains, presence or absence of IPTG induction, similar to WT) was “high levels of polymyxin B resistance”.

B1: PLacO13: Synthetic IPTG-inducible promoter + RBS, SEQ ID NO: 148 (nucleic acid)
DNA: TTACAAAGAAAATTCGACAAACTGTTATTTTTCTATCTATTTAAATTGTGAGCGGATAACAATTTGGGTGGGAAACTTTAGTTATGTACCTTTGTCGGCAATTGTGAGCGGATAACAATTAAATAAAGATATTCTCGTCAAACAAATATAAATAATATAAAC
As for B1, the EC50 in data set [2] (setting [4]) came to 86 µM. Moreover, in data set [2], the “change in gene expression on induction” value is 8 fold.

B2: PBT3763: Rhamnose inducible promoter + RBS, SEQ ID NO: 144 (nucleic acid)
DNA: TATTTCGGAGAAAACATGCATAAATCATGCTTTTTTTGCATAAAAAGTAAAATTTATACTGATGTAAGGTTTGGCTATGCAGATTTGTGTCAAAATGCACATCCTTTCTATCAAAATGCGTAAGGAAAAGGAGGAAGGAACCGCCTATCTTTGCAATGTAGGTAAATGGATACCTTAAATATATAGACAAAATACC
Turning to B2, the Hill coefficient n in data set [2] (rhamnose inducer) was 1.4. Also, in data set [2] (rhamnose inducer, read-out: threshold K (Hill function fit)), the EC50 was determined as 300 µM. The molecule also gave an output dynamic range in data set [2] (rhamnose induction, NanoLuc) of 104 fold.

B3: PBT0268: Arabinogalactan inducible promoter + RBS, SEQ ID NO: 146 (nucleic acid)
DNA: TAAAATACACAAGTACGCGTCTTAATGGAAGATGCGTACTTTTCCATATATCAATGATCTATCCCATTTGAATGATTCCTGAACTTATATTGAACGATTTTTAGACCTGTTATAGTTAATAGCGATTATGGTCCAATTTTGGAAGTTTTTGAATGATTAGAGAACTTCTTTCTACTGGATAACTCGCACTTTTGTGACGCATTTGATGCACAACTAATACTTATTTGGTCTAAATAACTTTATAAATCTAATAGT
For B3, the “luciferase activity after removal of inducer from drinking water” value in data set [3] (fecal pellets) is reported as “rapidly returned to baseline”. Moreover, in data set [3] (within a day of arabinogalactan in drinking water), the “increase of luciferase activity in fecal pellets” value is listed as “approximately 75 fold”. Further, in data set [2] (arabinogalactan induction), the “regulation of output gene expression” value is 29 fold.

B4: PLacO23: Synthetic IPTG-inducible promoter + RBS, SEQ ID NO: 149 (nucleic acid)
DNA: TTACAAAGAAAATTCGACAAACTGTTATTTTTCTATCTATTTATTTGAATTGTGAGCGGATAACAATTACCTTTGTCGGCAATTGTGAGCGGATAACAATTAAATAAAGATATTCTCGTCAAACAAATATAAATAATATAAAC
On to B4, for which, in data set [2] (setting [4]), the EC50 was found to be 6 µM. Also, the “change in gene expression on induction” value in data set [2] worked out at 22 fold.

B5: PBT3324: Chondroitin-sulfate inducible promoter + RBS, SEQ ID NO: 145 (nucleic acid)
DNA: TATTTATAAGAGATAGCACATAATTTGAACTATTTTGTACGATTTGAACCCCTCTTTCCAACAAAAGAGGGGTTTCTTTGCATTCGGGAGAAGAACAAGTGATCTCTCTCTGTAAATACCGGCTAATGATAAACCGATTTACCATCGGACCTAAAACGATATATTCTATGATAAAGCAATCTTTTACTCTGTCAGTGACA
For the molecule B5, the “regulation of output gene expression” value in data set [2] (chondroitin sulfate induction) came out at 60 fold.
